{"source": "patent US20030166567", "proteins": {"B1": {"name": "Proenzyme pro-MMP-9 (protein)", "chain": "APRQRQSTLVLFPGDLRTNLTDRQLAEEYLYRYGYTRVAEMRGESKSLGPALLLLQKQLSLPETGELDSATLKAMRTPRCGVPDLGRFQTFEGDLKWHHHNITYWIQNYSEDLPRAVIDDAFARAFALWSAVTPLTFTRVYSRDADIVIQFGVAEHGDGYPFDGKDGLLAHAFPPGPGIQGDAHFDDDELWSLGKGVVVPTRFGNADGAACHFPFIFEGRSYSACTTDGRSDGLPWCSTTANYDTDDRFGFCPSERLYTQDGNADGKPCQFPFIFQGQSYSACTTDGRSDGYRWCATTANYDRDKLFGFCPTRADSTVMGGNSAGELCVFPFTFLGKEYSTCTSEGRGDGRLWCATTSNFDSDKKWGFCPDQGYSLFLVAAHEFGHALGLDHSSVPEALMYPMYRFTEGPPLHKDDVNGIRHLYGPRPEPEPRPPTTTTPQPTAPPTVCPTGPPTVHPSERPTAGPTGPPSAGPTGPPTAGPSTATTVPLSPVDDACNVNIFDAIAEIGNQLYLFKDGKYWRFSEGRGSRPQGPFLIADKWPALPRKLDSVFEERLSKKLFFFSGRQVWVYTGASVLGPRRLDKLGLGADVAQVTGALRSGRGKMLLFSGRRLWRFDVKAQMVDPRSASEVDRMFPGVPLDTHDVFQYREKAYFCQDRFYWRVSSRSELNQVDQVGYVTYDILQCPED"}}, "molecular_target": "T1, 19-mer (SEQ ID NO:11) cleavage domain peptide", "T1 chain": "PRCGNPDVANYNFFPRKPK", "data": [{"protein": "B1", "values": [{"measurement": "anti-activation (splicing) assay: conversion of pro-MMP-9 by stromilysin, followed by HPLC", "value": "Titrating the standard splicing reaction with the 19-mer (SEQ ID NO:11) peptide prevents the conversion of pro-MMP-9 into the prodomain and the active enzyme ... Splicing can be inhibited in a dose dependent manner with micromolar 19-mer (SEQ ID NO:11) peptide"}]}]}
